Measured values published in article PMC9802656 (Science Translational Medicine, 2022).

What was measured:
SARS-CoV-2 S protein S1 = SARS-CoV-2 S protein S1 (SARS-CoV-2, ancestral (WT), UniProt P0DTC2); assay: ELISA; settings: both partners purified
[1] = target: SARS-CoV-2 S protein receptor binding domain (RBD) (SARS-CoV-2, ancestral (WT), UniProt P0DTC2); assay: crystal structure; settings: both partners purified

Binder | binding result (SARS-CoV-2 S protein S1) | binding result [1]
monoclonal antibody m31A7 (IgG) (antibody, V domains shown) VH: EVQLQQSGPEMVKPGASVKISCKTSGYTFTEYTIYWVKQSHGKSLEWLGGINPNIGDTTYNQKFKGKATLTVDTSSSTAYMELRSLTSEDSAVYYCAREVYNYSFAYWGQGTLVTVSA VL: DIVMSQSPSSLAVSVGEKVTMSCKSSQSLLYSSNQKNYLAWYQQKLGQTPKLLIYWASSRESGVPDRFTGSGSGTDFTLTISSVRAEDLAVYYCQQYYRYPLTFGVGTKLELK | binds | 
m31A7 Fab (Fab, V domains shown) VH: EVQLQQSGPEMVKPGASVKISCKTSGYTFTEYTIYWVKQSHGKSLEWLGGINPNIGDTTYNQKFKGKATLTVDTSSSTAYMELRSLTSEDSAVYYCAREVYNYSFAYWGQGTLVTVSA VL: DIVMSQSPSSLAVSVGEKVTMSCKSSQSLLYSSNQKNYLAWYQQKLGQTPKLLIYWASSRESGVPDRFTGSGSGTDFTLTISSVRAEDLAVYYCQQYYRYPLTFGVGTKLELK |  | binds
